Values quoted from earlier work as cited in article PMC8961861.

Biological target: Drebrin 1-300 (Homo sapiens) (UniProt Q16643)
Test: NMR

Chain of UniProt Q16643 (Q16643 1-300): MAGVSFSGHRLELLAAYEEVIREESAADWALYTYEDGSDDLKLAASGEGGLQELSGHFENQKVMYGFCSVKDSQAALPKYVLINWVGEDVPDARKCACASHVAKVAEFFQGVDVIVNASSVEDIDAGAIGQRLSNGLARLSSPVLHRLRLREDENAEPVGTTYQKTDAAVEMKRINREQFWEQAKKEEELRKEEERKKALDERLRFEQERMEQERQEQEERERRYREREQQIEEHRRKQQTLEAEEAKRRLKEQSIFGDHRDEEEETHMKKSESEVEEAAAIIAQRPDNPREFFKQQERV

Substance: Cx43CT 236-382 (from UniProt P08050)
- Kd: 300 µM
